Experiment [1] addresses ChrC-His6, Fe superoxide dismutase ChrC of TnOtchr from Ochrobactrum tritici 5bvl1 (Ochrobactrum tritici 5bvl1). In words: SEC; Superdex 200 10/300 GL, 0.5 mL/min, 50 mM Tris-HCl, 0.15 M NaCl, pH 7.4; mass from a curve of standard proteins. A general note: In gel filtration, larger molecules generally elute earlier.
For experiment [2] the target is unchanged. In words: cross-linking; 10 ug purified enzyme with 0.1 % glutaraldehyde in 20 mM NaCl, 10 mM KCl, 2 mM DTT, 20 mM Hepes pH 7.5; 5, 15 and 30 min at 30 °C; 12 % SDS-PAGE.
In experiment [3] the target is ChrF-His6, Mn superoxide dismutase ChrF of TnOtchr from Ochrobactrum tritici 5bvl1 (Ochrobactrum tritici 5bvl1). In words: SEC; Superdex 200 10/300 GL, 0.5 mL/min, 50 mM Tris-HCl, 0.15 M NaCl, pH 7.4; mass from a curve of standard proteins.
The target is the same in experiment [4]. In words: cross-linking; 10 ug purified enzyme with 0.1 % glutaraldehyde in 20 mM NaCl, 10 mM KCl, 2 mM DTT, 20 mM Hepes pH 7.5; 5, 15 and 30 min at 30 °C; 12 % SDS-PAGE.

Consider “ChrC-His6, Fe superoxide dismutase ChrC of TnOtchr from Ochrobactrum tritici 5bvl1 (enzyme)”, for which the stoichiometry N in experiment [1] and in experiment [2] was 4 in each case.

For “ChrF-His6, Mn superoxide dismutase ChrF of TnOtchr from Ochrobactrum tritici 5bvl1 (enzyme)”, the stoichiometry N in experiment [3] and in experiment [4] was 2 in each case.

The values are drawn from paper PMC4779226.
